Data from patent publication US20240174727A1, “LONG-ACTING NATRIURETIC PEPTIDES AND USES THEREOF” (Eli Lilly and Company, priority 2022, published 2024).

T1: rat NPRA (rat, UniProt P18910 29-1057)
T1 sequence (looked up): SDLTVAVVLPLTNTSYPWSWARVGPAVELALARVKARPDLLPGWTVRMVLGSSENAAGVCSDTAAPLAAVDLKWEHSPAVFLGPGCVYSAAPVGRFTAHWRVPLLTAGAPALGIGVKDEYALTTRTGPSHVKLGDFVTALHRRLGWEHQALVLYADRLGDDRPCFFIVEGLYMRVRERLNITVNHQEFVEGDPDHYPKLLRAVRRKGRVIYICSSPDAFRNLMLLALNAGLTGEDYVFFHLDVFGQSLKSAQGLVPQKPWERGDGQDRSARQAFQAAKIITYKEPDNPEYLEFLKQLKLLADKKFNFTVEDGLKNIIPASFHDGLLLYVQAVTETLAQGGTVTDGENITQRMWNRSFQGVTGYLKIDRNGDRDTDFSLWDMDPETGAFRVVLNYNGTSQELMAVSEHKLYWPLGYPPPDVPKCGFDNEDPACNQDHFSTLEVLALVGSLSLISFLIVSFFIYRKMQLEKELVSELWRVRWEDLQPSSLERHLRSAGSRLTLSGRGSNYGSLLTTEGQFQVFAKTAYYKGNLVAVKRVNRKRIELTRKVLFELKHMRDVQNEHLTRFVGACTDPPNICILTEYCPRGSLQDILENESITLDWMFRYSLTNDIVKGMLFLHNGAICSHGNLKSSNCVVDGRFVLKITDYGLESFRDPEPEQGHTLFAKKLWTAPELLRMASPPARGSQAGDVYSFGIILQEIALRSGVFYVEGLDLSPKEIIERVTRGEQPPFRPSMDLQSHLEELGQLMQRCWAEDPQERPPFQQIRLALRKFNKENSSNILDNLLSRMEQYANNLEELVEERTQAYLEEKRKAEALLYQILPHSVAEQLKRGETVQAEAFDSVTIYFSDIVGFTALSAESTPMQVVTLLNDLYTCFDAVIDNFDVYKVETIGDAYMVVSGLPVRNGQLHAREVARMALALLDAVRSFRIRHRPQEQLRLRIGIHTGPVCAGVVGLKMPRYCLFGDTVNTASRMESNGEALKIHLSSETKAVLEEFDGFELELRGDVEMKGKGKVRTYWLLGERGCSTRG


Biological target: T1, rat NPRA
Test: cell-based or functional assay

Row | Binder | cGMP Assay (EC50, pM) w/BSA [pM] | cGMP Assay (EC50, pM) w/Casein [pM]
1 | XEKEKEKGEKPRSSCFGKRIDRIGHYSGLGCPSFRHGSPSSGAPPPS (HOOC-(CH2)18-CO-(γGlu)-EKEKEKGEKPRSS[CFGKRIDRIGHYSGLGC]PSFRHGSPSSGAPPPS-NH2; thioacetal linkage between the bracketed Cys) [Example 5] | 276000 | 1130
2 | XEKEKEKGSXKRSSCFGGKIDRIGHQSGLGCPSFRHGGPSSGAPPPS (HOOC-(CH2)18-CO-(γGlu)-EKEKEKGS-4Pal-KRSS[CFGGKIDRIGHQSGLGC]PSFRHGGPSSGAPPPS-NH2; disulfide linkage between the bracketed Cys) [Example 30] | – | 1130
3 | XEKEKEKGEKPRSSCFGGRIDRIGHYSGLGCPSFRHGGPSSGAPPPS (HOOC-(CH2)18-CO-(γGlu)-EKEKEKGEKPRSS[CFGGRIDRIGHYSGLGC]PSFRHGGPSSGAPPPS-NH2; thioacetal linkage between the bracketed Cys) [Example 57] | – | 9500
4 | XEKEKEKGSXRRSSCFGGRIDRIGHYSGLGCPSFRHGGPSSGAPPPS (HOOC-(CH2)18-CO-(γGlu)-EKEKEKGS-4Pal-RRSS[CFGGRIDRIGHYSGLGC]PSFRHGGPSSGAPPPS-NH2; disulfide linkage between the bracketed Cys) [Example 38] | 40500 | –
5 | XEKEKEKGEKPRSSCFGGRIDRIGHYSGLGCPSFRHGGPSSGAPPPS (HOOC-(CH2)18-CO-(γGlu)-EKEKEKGEKPRSS[CFGGRIDRIGHYSGLGC]PSFRHGGPSSGAPPPS-NH2; disulfide linkage between the bracketed Cys) [Example 55] | – | 493
6 | XEKEKEKGSXKRSSCFGGKIDRIGXQSGLGCPSFRHGGPSSGAPPPS (HOOC-(CH2)18-CO-(γGlu)-EKEKEKGS-4Pal-KRSS[CFGGKIDRIG-Dap-QSGLGC]PSFRHGGPSSGAPPPS-NH2; disulfide linkage between the bracketed Cys) [Example 31] | – | 12200
7 | XEKEKEKGSXRRSSCFGGRIDRIGHQSGLGCPSFRHGPSSGAPPPS (HOOC-(CH2)18-CO-(γGlu)-EKEKEKGS-4Pal-RRSS[CFGGRIDRIGHQSGLGC]PSFRH-GPSSGAPPPS-NH2; disulfide linkage between the bracketed Cys) [Example 37] | 84600 | –
